Bridge positions count the residues as written; N and C are the ends. Peptide text beside a SMILES is read from it. * marks the point of attachment. X1 = N[C@@H](CSC1CC(=O)N(CC2CCC(C(=O)*)CC2)C1=O)C(=O)NCCCC[C@@H](C(=O)O)N(CCN(CC(=O)O)CC(=O)O)CCN(CC(=O)O)CC(=O)O
Assays:
[1] = in vivo; conditions: 2 h p.i., gamma counting, mean ± SEM; for urinary excretion (urine radioactivity): i.v.; for tissue uptake at 2 h: male, Swiss, mouse, iv, total radioactivity
Procedure: In order to quantify the absolute uptake of ^111In-DTPA-cNGR in the different heart pieces, gamma counting was performed using an automated NaI(Tl) gamma counter (Wallac Wizard, Turku, Finland). Additionally, we dissected the vital organs of the mice to study overall biodistribution. The uptake of ^111In-DTPA-cNGR was determined 2 h post-injection (p.i.) for both MI (n ≥ 5) and control animals (n ≥ 4). Data were expressed as percentage of injected dose per gram tissue (%ID/g). Urinal excretion was expressed as %ID.

[2] = in vivo; conditions: male, Swiss, mouse, heart, iv, mean ± S.E.M.
Procedure: (§1) MI was induced in 10- to 12-week old male Swiss mice by ligation of the left anterior descending coronary artery (LAD) (n = 7), as previously described. The angiogenesis imaging protocol was performed 7 days after the LAD ligation. A group of non-operated male Swiss mice (n = 5) was used as control. A variable number of animals were available for analysis per experiment. For SPECT scans, seven MI mice and five control mice were used while for biodistribution purposes ≥5 MI mice and ≥4 control mice were used. Furthermore, a group of six 10- to 12-week old male Swiss mice were bilaterally, subcutaneously implanted in the flanks with Matrigel (Table 1). […] All animals were held under the guidelines of the animal care facility (Maastricht University). All animal experiments were approved by the Committee for Animal Welfare of Maastricht University.
Mice were anesthetised with isoflurane (induction 2.5%; maintenance; 1.5%), a catheter was placed in the tail vein and the animals were positioned in the micro-SPECT camera (MiLabs, Utrecht, The Netherlands).
U-SPECT-II reconstruction software version 2.38 (MiLabs, Utrecht, The Netherlands) was used to reconstruct images. ^99mTc and ^111In images were reconstructed by selecting the photopeak (PP) and background (BG) windows as indicated in Figure 1.
To allow quantification of radiotracer uptake in vivo, conversion factors (CFs) were determined for the 0.6-mm collimator system in a representative phantom (20 ml) for ^99mTc and/or ^111In. During the SPECT reconstruction, the total amount of counts was distributed over the different voxels, resulting in a counts/voxel expression for the average concentration of counts. Taking into account the voxel volume (Vv), the CFs are calculated using equation (a):a ConversionfactorMBq=ActivityconcentrationMBq/ml/SPECTcountspervoxel/Vvml
(§2) The PMOD 2.95 cardiac tool PCARD (PMOD Technologies, Zürich, Switzerland) was used to segment the heart in the 17-segment model according to the American Heart Association (AHA) guidelines. For both the ^99mTc-sestamibi and ^111In-DTPA-cNGR images, the uptake was measured for each segment and expressed as mean standardised uptake value (SUVmean) using equation (b).b SUV=SPECTcountspervoxel×CF/VvMBq/ml×Bodyweightg/InjecteddoseMBq
For body weight, we assumed that 1 g of body weight equalled 1 ml.

[3] = Matrigel plug model, ex vivo SPECT of explanted Matrigels; type: in vivo; conditions: male, Swiss, mouse, total radioactivity, six mice, mean ± SEM
Procedure: as §1, §2

CC(=O)N[C@H]1CSSC[C@@H](C(=O)NCC(=O)NCC(=O)N[C@@H](CCCCNC(=O)C2CCC(CN3C(=O)CC(SC[C@H](N)C(=O)NCCCC[C@@H](C(=O)O)N(CCN(CC(=O)O)CC(=O)O)CCN(CC(=O)O)CC(=O)O)C3=O)CC2)C(N)=O)NC(=O)[C@H](CCCNC(=N)N)NC(=O)CNC(=O)[C@H](CC(N)=O)NC1=O (stereo partly drawn) [^111In-DTPA-cNGR, metal not drawn] (Ac-CNGRCGGK(X1)-NH2; disulfide 1-5)
urinary excretion (urine radioactivity) ([1]; MI mice (n ≥ 5)): 82.29 ± 4.87 %ID | urinary excretion (urine radioactivity) ([1]; healthy control mice (n ≥ 4)): 92.5 ± 1.17 %ID | tissue uptake at 2 h ([1]; heart, apical region, uptake in the apical region of the heart, infarcted hearts, MI mice (n ≥ 5)): 0.16 ± 0.0542 %ID/g | tissue uptake at 2 h ([1]; heart, apical region, uptake in the apical region of the heart, non-infarcted hearts, healthy control mice (n ≥ 4)): 0.02 ± 0.005 %ID/g | tissue uptake at 2 h ([1]; kidney, kidney uptake, MI mice (n ≥ 5)): 2.73 ± 0.42 %ID/g | tissue uptake at 2 h ([1]; kidney, kidney uptake, healthy control mice (n ≥ 4)): 4.04 ± 0.41 %ID/g | SUV ([2]; AHA segment 5 (basal inferolateral), segment 5. Basal inferolateral, MI mice n = 7, 7 days after LAD ligation, in vivo SPECT): 0.23 ± 0.03 SUV | SUV ([2]; AHA segment 5 (basal inferolateral), segment 5. Basal inferolateral, healthy control mice n = 5, in vivo SPECT): 0.14 ± 0.04 SUV | SUV ([2]; segment 1 basal anterior, total radioactivity, healthy control mice n = 5, in vivo SPECT): 0.16 ± 0.05 SUV | SUV ([2]; segment 1 basal anterior, total radioactivity, segment 1. Basal anterior, MI mice n = 7, 7 days after LAD ligation, in vivo SPECT): 0.24 ± 0.04 SUV | SUV ([2]; segment 2 basal anteroseptal, total radioactivity, healthy control mice n = 5, in vivo SPECT): 0.16 ± 0.05 SUV | SUV ([2]; segment 2 basal anteroseptal, total radioactivity, segment 2. Basal anteroseptal, MI mice n = 7, 7 days after LAD ligation, in vivo SPECT): 0.21 ± 0.03 SUV | SUV ([2]; segment 3 basal inferoseptal, total radioactivity, healthy control mice n = 5, in vivo SPECT): 0.13 ± 0.06 SUV | SUV ([2]; segment 3 basal inferoseptal, total radioactivity, segment 3. Basal inferoseptal, MI mice n = 7, 7 days after LAD ligation, in vivo SPECT): 0.2 ± 0.02 SUV | SUV ([2]; segment 4 basal inferior, total radioactivity, healthy control mice n = 5, in vivo SPECT): 0.15 ± 0.05 SUV | SUV ([2]; segment 4 basal inferior, total radioactivity, segment 4. Basal inferior, MI mice n = 7, 7 days after LAD ligation, in vivo SPECT): 0.23 ± 0.03 SUV | SUV ([2]; segment 6 basal anterolateral, total radioactivity, healthy control mice n = 5, in vivo SPECT): 0.18 ± 0.06 SUV | SUV ([2]; segment 6 basal anterolateral, total radioactivity, segment 6. Basal anterolateral, MI mice n = 7, 7 days after LAD ligation, in vivo SPECT): 0.26 ± 0.04 SUV | SUV ([2]; segment 7 mid anterior, total radioactivity, healthy control mice n = 5, in vivo SPECT): 0.15 ± 0.05 SUV | SUV ([2]; segment 7 mid anterior, total radioactivity, segment 7. Mid anterior, MI mice n = 7, 7 days after LAD ligation, in vivo SPECT): 0.21 ± 0.02 SUV | SUV ([2]; segment 8 mid anteroseptal, total radioactivity, healthy control mice n = 5, in vivo SPECT): 0.14 ± 0.06 SUV | SUV ([2]; segment 8 mid anteroseptal, total radioactivity, segment 8. Mid anteroseptal, MI mice n = 7, 7 days after LAD ligation, in vivo SPECT): 0.2 ± 0.02 SUV | SUV ([2]; segment 9 mid inferoseptal, total radioactivity, healthy control mice n = 5, in vivo SPECT): 0.12 ± 0.06 SUV | SUV ([2]; segment 9 mid inferoseptal, total radioactivity, segment 9. Mid inferoseptal, MI mice n = 7, 7 days after LAD ligation, in vivo SPECT): 0.18 ± 0.03 SUV | SUV ([2]; segment 10 mid inferior, total radioactivity, healthy control mice n = 5, in vivo SPECT): 0.12 ± 0.05 SUV | SUV ([2]; segment 10 mid inferior, total radioactivity, segment 10. Mid inferior, MI mice n = 7, 7 days after LAD ligation, in vivo SPECT): 0.17 ± 0.03 SUV | SUV ([2]; segment 11 mid inferolateral, total radioactivity, healthy control mice n = 5, in vivo SPECT): 0.11 ± 0.04 SUV | SUV ([2]; segment 11 mid inferolateral, total radioactivity, segment 11. Mid inferolateral, MI mice n = 7, 7 days after LAD ligation, in vivo SPECT): 0.2 ± 0.03 SUV | SUV ([2]; segment 12 mid anterolateral, total radioactivity, healthy control mice n = 5, in vivo SPECT): 0.15 ± 0.05 SUV | SUV ([2]; segment 12 mid anterolateral, total radioactivity, segment 12. Mid anterolateral, MI mice n = 7, 7 days after LAD ligation, in vivo SPECT): 0.24 ± 0.01 SUV | SUV ([2]; segment 13 apical anterior, total radioactivity, healthy control mice n = 5, in vivo SPECT): 0.11 ± 0.03 SUV | SUV ([2]; segment 13 apical anterior, total radioactivity, segment 13. Apical anterior, MI mice n = 7, 7 days after LAD ligation, in vivo SPECT): 0.21 ± 0.02 SUV | SUV ([2]; segment 14 apical septal, total radioactivity, healthy control mice n = 5, in vivo SPECT): 0.12 ± 0.04 SUV | SUV ([2]; segment 14 apical septal, total radioactivity, segment 14. Apical septal, MI mice n = 7, 7 days after LAD ligation, in vivo SPECT): 0.2 ± 0.03 SUV | SUV ([2]; segment 15 apical inferior, total radioactivity, healthy control mice n = 5, in vivo SPECT): 0.1 ± 0.03 SUV | SUV ([2]; segment 15 apical inferior, total radioactivity, segment 15. Apical inferior, MI mice n = 7, 7 days after LAD ligation, in vivo SPECT): 0.18 ± 0.03 SUV | SUV ([2]; segment 16 apical lateral, total radioactivity, healthy control mice n = 5, in vivo SPECT): 0.14 ± 0.04 SUV | SUV ([2]; segment 16 apical lateral, total radioactivity, segment 16. Apical lateral, MI mice n = 7, 7 days after LAD ligation, in vivo SPECT): 0.22 ± 0.02 SUV | SUV ([2]; segment 17 apex, total radioactivity, healthy control mice n = 5, in vivo SPECT): 0.1 ± 0.03 SUV | SUV ([2]; segment 17 apex, total radioactivity, segment 17. Apex, MI mice n = 7, 7 days after LAD ligation, in vivo SPECT): 0.2 ± 0.03 SUV | SUV ([3]; explanted control (PBS) Matrigel plug, control (PBS) Matrigels): 0.000222 SUV | SUV ([3]; explanted hFGF2-supplemented Matrigel plug, hFGF2-supplemented Matrigels): 0.000824 SUV

From paper PMC4384708, “Molecular imaging of angiogenesis after myocardial infarction by ^111In-DTPA-cNGR and ^99mTc-sestamibi dual-isotope myocardial SPECT” (EJNMMI Research, 2015)
